Laboratory results reported in US20240229000A1, “METHODS AND COMPOSITIONS THEREOF FOR SITE-[…] LABELING OF HUMAN IgG BY PROXIMITY-BASED SORTASE-MEDIATED LIGATION” (THE TRUSTEES OF THE UNIVERSITY OF PENNSYLVANIA, priority 2021, published 2024).

System: trastuzumab (HCLPETG+LC)
Experiment: Proximity-based sortase-mediated protein ligation (PBS-PL) heavy chain labeling with GGG-TAMRA
Format: biochemical
Details: 1 μg trastuzumab (HCLPETG+LC), 200 μM GGG-TAMRA, 37° C. overnight
Procedure: FIGS. 13A-13C show comparison of proximity-based sortase-mediated protein ligation with 1M SrtA versus traditional sortase labeling with the pentamutant SrtA. FIG. 13A: Heavy chain labeling of trastuzumab (HCLPETG+LC) was carried out by titrating 5M SrtA (5M SrtA/antibody molar ratios ranging from 1:1 to 100:1) and comparing the labeling efficiency to that of 5M SrtA-pG, 1M SrtA-pZ, 1M SrtA-pG, and 1M pG-SrtA. […] Labeling efficiencies of 5M SrtA (FIG. 13B) and 1M SrtA-pZ (FIG. 13C) on the heavy chain were further compared by scaling the GGG-TAMRA concentration from 1-200 μM. Reaction conditions included: 1 μg trastuzumab (HCLPETG+LC), 500 μM CaCl2, 200 μM GGG-TAMRA, and 0.63 μM SrtA variant (1:1 molar ratio of 1M SrtA-pZ to antibody) in 10 mM Tris-HCl buffer (37° C. overnight). For all titration experiments, all other reactions conditions were held constant. Labeling efficiencies were determined by measuring the fluorescent intensity of the heavy chain band. For each experiment, these values were normalized against the maximum fluorescent intensity to compare across reaction conditions. One-way ANOVA was used to determine statistical significance (*P<0.05, n.s.=not significant), followed by Tukey's multiple comparisons test. Bar graphs are represented as average f SD. N=3 per reaction condition.

trastuzumab (HCLPETG+LC), sequence (as listed by the source, other chains not shown): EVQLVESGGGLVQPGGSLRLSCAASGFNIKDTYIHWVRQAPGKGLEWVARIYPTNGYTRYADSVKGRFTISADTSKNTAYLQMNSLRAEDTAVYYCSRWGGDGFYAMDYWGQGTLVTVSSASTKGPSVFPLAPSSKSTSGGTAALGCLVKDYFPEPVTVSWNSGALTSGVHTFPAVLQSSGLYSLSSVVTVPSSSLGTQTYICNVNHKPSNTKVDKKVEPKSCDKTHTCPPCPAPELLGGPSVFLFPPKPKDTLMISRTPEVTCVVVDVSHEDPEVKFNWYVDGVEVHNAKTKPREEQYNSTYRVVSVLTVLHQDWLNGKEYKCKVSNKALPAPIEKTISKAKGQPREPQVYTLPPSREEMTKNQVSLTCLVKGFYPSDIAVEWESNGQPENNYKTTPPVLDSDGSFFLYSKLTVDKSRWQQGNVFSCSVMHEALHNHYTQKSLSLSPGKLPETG

B1: 5M SrtA-pG (protein)
chain: MQAKPQIPKDKSKVAGYIEIPDADIKEPVYPGPATREQLNRGVSFAEENESLDDQNISIAGHTFIDRPNYQFTNLKAAKKGSMVYFKVGNETRKYKMTSIRNVKPTAVEVLDEQKGKDKQLTLITCDDYNEETGVWETRKIFVATEVKGGSGGSMTFKLIINGKTLKGEITIEAVDAAEAEKIFKQYANDYGIDGEWTYDDATKTFTVTE
heavy chain labeling efficiency of trastuzumab (HCLPETG+LC): did not label antibodies as efficiently as 1 M SrtA-pG and 1M SrtA-pZ
